This passage reports Km results from patent publication US20040009568A1, “Catalytic domains of the human hepatocyte growth factor receptor tyrosine kinase, and materials and methods for identification of inhibitors thereof” (priority 2001, published 2004).

This data set concerns the target T1, phosphorylated HGFR (pHGFR) (Homo sapiens, UniProt P08581).
T1 construct: The cDNA corresponding to residues 1051-1349 of the HGFR kinase catalytic domain (HGFRkd) was cloned into a pFastBac plasmid; added N-terminal methionine (start codon of the NcoI site) (N); made in house; host or cells: Sf9 insect cells, recombinant baculovirus; then autophosphorylated in vitro with MgATP
Briefly: Coupled enzymatic (PK/LDH) kinase assay, phospho-HGFR. It counts as biochemical. The note with it: coupled, enzymatic format; phosphorylation state of HGFR not stated; read-out: Km, Dephosphorylated α-casein. How it is done: A coupled enzymatic assay format was used to measure both HGFR and phospho-HGFR(PHGFR) activities. The kinase-catalyzed production of ADP from ATP that accompanies phosphate transfer to the random copolymer poly(Glu4Tyr) or peptide substrate was coupled to the oxidation of NADH through the activities of pyruvate kinase (PK) and lactate dehydrogenase (LDH). NADH conversion to NAD^+ was monitored by the decrease in absorbance at 340 nm (ε=6.22 cm^−1 mM^−1) using a Beckman DU650 spectrophotometer. A typical reaction solution contained 1 mM phosphoenolpyruvate, 0.24 mM NADH, 40 mM MgCl2, 5 mM DTT, poly(Glu4Tyr), ATP, 15 units/mL PK, 15 units/mL LDH in 100 mM HEPES, pH 7.5. […]
The kinetic consequences of the autophosphorylation were investigated. HGFR and pHGFR activities were evaluated in two distinct and complementing assay formats. […] NADH conversion to NAD^+ was monitored spectrophotometrically by the decrease in absorbance at 340 nm (ε=6.22 cm^−1 mM^−1). […]
Inhibition of HGFR and pHGFR were monitored in two distinct assay formats to insure valid results. The coupled, enzymatic format (CE) was a continuous assay that measured ADP production through the sequential action of two standard coupling enzymes (pyruvate kinase and lactate dehydrogenase). The radioactive assay format was a discontinuous assay that measured phospho-protein production directly. […]

T1 sequence (P08581 1051-1349): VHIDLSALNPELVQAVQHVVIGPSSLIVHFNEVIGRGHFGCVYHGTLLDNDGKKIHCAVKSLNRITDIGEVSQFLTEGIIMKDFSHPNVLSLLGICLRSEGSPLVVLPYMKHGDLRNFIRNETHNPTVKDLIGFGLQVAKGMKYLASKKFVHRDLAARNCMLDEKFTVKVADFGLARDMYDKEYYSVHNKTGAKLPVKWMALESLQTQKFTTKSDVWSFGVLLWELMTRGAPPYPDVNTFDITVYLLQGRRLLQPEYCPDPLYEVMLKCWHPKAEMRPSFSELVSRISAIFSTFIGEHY

B1: Dephosphorylated α-casein: phosphoacceptor protein substrate for HGFR (protein)
chain: RPKHPIKHQGLPQEVLNENLLRFFVAPFPEVFGKEKVNELSKDIGSESTEDQAMEDIKQMEAESISSSEEIVPNSVEQKHIQKEDVPSERYLGYLEQLLRLKKYKVPQLEIVPNSAEERLHSMKEGIHAQQKEPMIGVNQELAYFYPELFRQFYQLDAYPSGAWYYVPLGTQYTDAPSFSDIPNPIGSENSEKTTMPLW
With B1, the Km (commonly the concentration of substrate that gives half-maximal velocity) turned out to be 28.5 ± 3.5 µM.
